Legend:
[1] = biological target: catalytic domain of human MMP9 (human)
[2] = biological target: recombinant rat MMP2 (pro‐MMP2 activated with APMA) (rat)
[3] = biological target: recombinant human MMP2 (pro‐MMP2 activated with APMA) (human)
[4] = biological target: recombinant rat MMP9 (rat pro‐MMP9) (rat) (UniProt P50282)
[5] = biological target: human recombinant TACE (TNFα converting enzyme) (human) (UniProt P78536)
Chain of UniProt P78536 (P78536 18-824): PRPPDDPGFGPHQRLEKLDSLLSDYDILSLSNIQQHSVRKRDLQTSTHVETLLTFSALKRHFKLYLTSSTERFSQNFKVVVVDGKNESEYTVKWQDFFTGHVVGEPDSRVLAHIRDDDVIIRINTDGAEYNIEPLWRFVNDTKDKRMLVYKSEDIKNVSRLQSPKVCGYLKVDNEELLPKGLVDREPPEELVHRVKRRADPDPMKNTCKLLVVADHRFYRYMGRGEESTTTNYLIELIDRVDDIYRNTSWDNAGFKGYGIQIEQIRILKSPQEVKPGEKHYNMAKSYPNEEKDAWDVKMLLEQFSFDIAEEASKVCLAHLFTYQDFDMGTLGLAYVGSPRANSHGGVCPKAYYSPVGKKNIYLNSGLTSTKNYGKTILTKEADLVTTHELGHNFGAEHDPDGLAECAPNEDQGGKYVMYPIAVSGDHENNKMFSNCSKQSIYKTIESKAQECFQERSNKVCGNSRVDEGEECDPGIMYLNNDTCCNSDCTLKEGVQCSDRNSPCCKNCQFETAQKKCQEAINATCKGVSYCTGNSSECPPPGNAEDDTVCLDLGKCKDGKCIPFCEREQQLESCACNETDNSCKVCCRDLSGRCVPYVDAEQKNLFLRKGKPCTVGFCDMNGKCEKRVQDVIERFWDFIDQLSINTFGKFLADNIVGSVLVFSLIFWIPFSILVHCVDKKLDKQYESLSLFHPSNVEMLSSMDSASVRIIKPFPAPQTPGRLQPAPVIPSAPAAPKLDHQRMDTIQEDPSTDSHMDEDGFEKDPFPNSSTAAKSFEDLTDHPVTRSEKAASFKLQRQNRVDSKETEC

Chain of catalytic domain of human MMP9 (human) (P14780 20-707): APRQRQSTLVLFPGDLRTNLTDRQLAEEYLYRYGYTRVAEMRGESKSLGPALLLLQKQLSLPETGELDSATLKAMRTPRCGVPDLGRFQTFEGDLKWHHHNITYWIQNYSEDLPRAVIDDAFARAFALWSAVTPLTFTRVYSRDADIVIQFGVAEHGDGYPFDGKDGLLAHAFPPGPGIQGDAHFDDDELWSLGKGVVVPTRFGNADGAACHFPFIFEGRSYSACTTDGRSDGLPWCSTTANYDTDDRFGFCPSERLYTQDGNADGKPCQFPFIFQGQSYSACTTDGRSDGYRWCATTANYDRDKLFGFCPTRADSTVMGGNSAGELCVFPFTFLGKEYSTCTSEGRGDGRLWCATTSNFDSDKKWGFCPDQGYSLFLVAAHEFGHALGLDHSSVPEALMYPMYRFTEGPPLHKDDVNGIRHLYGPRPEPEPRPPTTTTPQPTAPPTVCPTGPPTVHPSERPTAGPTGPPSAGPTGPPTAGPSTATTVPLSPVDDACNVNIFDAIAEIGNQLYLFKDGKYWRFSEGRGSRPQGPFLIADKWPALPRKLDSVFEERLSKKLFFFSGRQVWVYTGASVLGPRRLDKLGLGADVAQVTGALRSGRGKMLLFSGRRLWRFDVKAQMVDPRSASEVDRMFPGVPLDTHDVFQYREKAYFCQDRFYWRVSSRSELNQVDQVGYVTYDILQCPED
Chain of UniProt P50282 (P50282 20-708): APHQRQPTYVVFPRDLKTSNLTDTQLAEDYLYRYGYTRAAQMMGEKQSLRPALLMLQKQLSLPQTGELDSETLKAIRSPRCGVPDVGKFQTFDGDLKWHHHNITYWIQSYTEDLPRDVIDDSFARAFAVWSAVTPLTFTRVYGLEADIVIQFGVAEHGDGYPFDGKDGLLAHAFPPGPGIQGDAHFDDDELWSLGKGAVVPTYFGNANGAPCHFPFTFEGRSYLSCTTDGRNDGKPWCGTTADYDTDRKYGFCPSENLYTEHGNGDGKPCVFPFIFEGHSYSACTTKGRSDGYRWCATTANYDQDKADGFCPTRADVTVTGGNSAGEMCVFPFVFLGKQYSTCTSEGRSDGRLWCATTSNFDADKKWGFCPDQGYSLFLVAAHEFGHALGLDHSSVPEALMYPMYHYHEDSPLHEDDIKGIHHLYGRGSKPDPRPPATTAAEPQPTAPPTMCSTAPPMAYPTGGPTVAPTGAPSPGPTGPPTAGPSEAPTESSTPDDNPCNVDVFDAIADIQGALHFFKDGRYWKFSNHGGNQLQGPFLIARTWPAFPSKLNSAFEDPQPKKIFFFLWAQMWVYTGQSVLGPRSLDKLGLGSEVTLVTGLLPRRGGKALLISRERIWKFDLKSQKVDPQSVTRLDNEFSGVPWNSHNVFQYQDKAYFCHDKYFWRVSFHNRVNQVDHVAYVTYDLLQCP
Chain of recombinant human MMP2 (pro‐MMP2 activated with APMA) (human) (P08253 30-660): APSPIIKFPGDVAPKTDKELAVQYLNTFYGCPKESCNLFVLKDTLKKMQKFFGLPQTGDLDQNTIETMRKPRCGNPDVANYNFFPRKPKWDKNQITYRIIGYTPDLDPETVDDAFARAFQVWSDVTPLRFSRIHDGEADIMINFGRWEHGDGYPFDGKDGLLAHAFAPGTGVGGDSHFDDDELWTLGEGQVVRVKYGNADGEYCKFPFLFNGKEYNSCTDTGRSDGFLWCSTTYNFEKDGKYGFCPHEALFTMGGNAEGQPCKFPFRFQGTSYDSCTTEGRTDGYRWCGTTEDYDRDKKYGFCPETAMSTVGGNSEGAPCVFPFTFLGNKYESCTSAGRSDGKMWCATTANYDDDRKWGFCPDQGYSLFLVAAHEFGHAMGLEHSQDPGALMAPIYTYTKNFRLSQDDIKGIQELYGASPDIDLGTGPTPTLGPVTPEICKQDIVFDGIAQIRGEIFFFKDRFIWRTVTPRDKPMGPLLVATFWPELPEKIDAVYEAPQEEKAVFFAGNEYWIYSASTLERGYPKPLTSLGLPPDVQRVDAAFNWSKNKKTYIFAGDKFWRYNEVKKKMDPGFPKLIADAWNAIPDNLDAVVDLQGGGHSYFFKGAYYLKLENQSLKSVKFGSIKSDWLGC
Chain of recombinant rat MMP2 (pro‐MMP2 activated with APMA) (rat) (P33436 110-662): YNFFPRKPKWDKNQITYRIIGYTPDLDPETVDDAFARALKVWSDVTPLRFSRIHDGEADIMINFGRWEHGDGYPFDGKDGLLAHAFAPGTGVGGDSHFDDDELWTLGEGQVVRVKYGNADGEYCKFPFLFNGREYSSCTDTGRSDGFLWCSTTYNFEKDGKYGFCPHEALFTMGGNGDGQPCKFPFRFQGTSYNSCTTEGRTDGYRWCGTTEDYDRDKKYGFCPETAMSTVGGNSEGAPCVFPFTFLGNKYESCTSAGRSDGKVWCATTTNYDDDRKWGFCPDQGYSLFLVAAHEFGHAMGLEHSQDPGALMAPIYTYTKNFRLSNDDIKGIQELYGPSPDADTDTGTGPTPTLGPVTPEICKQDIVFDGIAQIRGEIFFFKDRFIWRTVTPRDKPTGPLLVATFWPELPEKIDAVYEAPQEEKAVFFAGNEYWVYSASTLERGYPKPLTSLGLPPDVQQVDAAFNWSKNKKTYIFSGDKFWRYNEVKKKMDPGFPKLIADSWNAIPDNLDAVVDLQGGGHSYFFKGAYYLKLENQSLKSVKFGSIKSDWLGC

Binder | IC50 of inhibition of human MMP9 activity (cleavage of 5-FAM/QXL 520 FRET peptide, 37°C) [1] | IC50 of inhibition of rat MMP2 activity (cleavage of 5-FAM/QXL 520 FRET peptide, 90 min, 37°C) [2] | IC50 of inhibition of human MMP2 activity (cleavage of 5-FAM/QXL 520 FRET peptide, 90 min, 37°C) [3] | IC50 of inhibition of rat MMP9 activity (cleavage of 5-FAM/QXL 520 FRET peptide, 37°C) [4] | IC50 of inhibition of human TACE activity (SensoLyte 520 TACE fluorimetric kit) [5]
Wild‐type TIMP3 (Tissue Inhibitor of Metalloproteinase 3) (natural protein, endogenous glycosylation site at Asn184) CTCSPSHPQDAFCNSDIVIRAKVVGKKLVKEGPFGTLVYTIKQMKMYRGFTKMPHVQYIHTEASESLCGLKLEVNKYQYLLTGRVYDGKMYTGLCNFVERWDQLTLSQRKGLNYRYHLGCNCKIKSCYYLPCFVTSKNECLWTDMLSNFGYPGYQSKHYACIRQKGGYCSWYRGWAPPDKSIINATDP | 0.9 nM | 1.4 nM | 0.6 nM | 0.9 nM | 59 nM
N‐TIMP3 (13.9 kDa N‐domain; aa 1‐120) (domain or fragment) CTCSPSHPQDAFCNSDIVIRAKVVGKKLVKEGPFGTLVYTIKQMKMYRGFTKMPHVQYIHTEASESLCGLKLEVNKYQYLLTGRVYDGKMYTGLCNFVERWDQLTLSQRKGLNYRYHLGC | 1.5 nM | 3.4 nM | 5.8 nM | 2.4 nM | 59 nM
TIMP3v2 (K22S/F34N TIMP3) (natural protein, additional glycosylation site (F34N), >95% occupancy by mass spectrometry; endogenous glycosylation site at Asn184) CTCSPSHPQDAFCNSDIVIRASVVGKKLVKEGPNGTLVYTIKQMKMYRGFTKMPHVQYIHTEASESLCGLKLEVNKYQYLLTGRVYDGKMYTGLCNFVERWDQLTLSQRKGLNYRYHLGCNCKIKSCYYLPCFVTSKNECLWTDMLSNFGYPGYQSKHYACIRQKGGYCSWYRGWAPPDKSIINATDP | 6.9 nM | 0.5 nM | 0.9 nM | 15.5 nM | 341 nM
TIMP3v82 (H55N/Q57T/K71N/E73T/D87N/K89T/R115T) (natural protein, additional glycosylation sites, site‐specific glycosylation confirmed by mass spec analysis (data not shown); endogenous glycosylation site at Asn184) CTCSPSHPQDAFCNSDIVIRAKVVGKKLVKEGPFGTLVYTIKQMKMYRGFTKMPNVTYIHTEASESLCGLNLTVNKYQYLLTGRVYNGTMYTGLCNFVERWDQLTLSQRKGLNYTYHLGCNCKIKSCYYLPCFVTSKNECLWTDMLSNFGYPGYQSKHYACIRQKGGYCSWYRGWAPPDKSIINATDP | 2.3 nM | 0.2 nM | 1 nM | 14.3 nM | 29 nM
WT‐HSA (wild‐type TIMP3 fused with human serum albumin) (protein) CTCSPSHPQDAFCNSDIVIRAKVVGKKLVKEGPFGTLVYTIKQMKMYRGFTKMPHVQYIHTEASESLCGLKLEVNKYQYLLTGRVYDGKMYTGLCNFVERWDQLTLSQRKGLNYRYHLGCNCKIKSCYYLPCFVTSKNECLWTDMLSNFGYPGYQSKHYACIRQKGGYCSWYRGWAPPDKSIINATDP | 0.6 nM | 0.2 nM | 0.8 nM | 50.8 nM | 12.1 nM
N‐HSA (N‐TIMP3 fused with human serum albumin) (protein) CTCSPSHPQDAFCNSDIVIRAKVVGKKLVKEGPFGTLVYTIKQMKMYRGFTKMPHVQYIHTEASESLCGLKLEVNKYQYLLTGRVYDGKMYTGLCNFVERWDQLTLSQRKGLNYRYHLGC | 1.1 nM | 3.6 nM | 6 nM | 10.8 nM | 195 nM
v2‐HSA (TIMP3v2 fused with human serum albumin) (protein, additional glycosylation site (F34N)) CTCSPSHPQDAFCNSDIVIRASVVGKKLVKEGPNGTLVYTIKQMKMYRGFTKMPHVQYIHTEASESLCGLKLEVNKYQYLLTGRVYDGKMYTGLCNFVERWDQLTLSQRKGLNYRYHLGCNCKIKSCYYLPCFVTSKNECLWTDMLSNFGYPGYQSKHYACIRQKGGYCSWYRGWAPPDKSIINATDP | 16 nM | 0.7 nM | 5.1 nM | 65 nM | 6800 nM
v82‐HSA (TIMP3v82 fused with human serum albumin) (protein, additional glycosylation sites) CTCSPSHPQDAFCNSDIVIRAKVVGKKLVKEGPFGTLVYTIKQMKMYRGFTKMPNVTYIHTEASESLCGLNLTVNKYQYLLTGRVYNGTMYTGLCNFVERWDQLTLSQRKGLNYTYHLGCNCKIKSCYYLPCFVTSKNECLWTDMLSNFGYPGYQSKHYACIRQKGGYCSWYRGWAPPDKSIINATDP | 7.4 nM | 0.3 nM | 1.6 nM | 152 nM | 145 nM
N‐Fc (N‐TIMP3 fused with Fc) (Fc fusion) CTCSPSHPQDAFCNSDIVIRAKVVGKKLVKEGPFGTLVYTIKQMKMYRGFTKMPHVQYIHTEASESLCGLKLEVNKYQYLLTGRVYDGKMYTGLCNFVERWDQLTLSQRKGLNYRYHLGC | 1.6 nM | – | 9.7 nM | – | –
v2‐Fc (TIMP3v2 fused with Fc) (Fc fusion, additional glycosylation site (F34N)) CTCSPSHPQDAFCNSDIVIRASVVGKKLVKEGPNGTLVYTIKQMKMYRGFTKMPHVQYIHTEASESLCGLKLEVNKYQYLLTGRVYDGKMYTGLCNFVERWDQLTLSQRKGLNYRYHLGCNCKIKSCYYLPCFVTSKNECLWTDMLSNFGYPGYQSKHYACIRQKGGYCSWYRGWAPPDKSIINATDP | 10 nM | 0.9 nM | 0.9 nM | 36 nM | 618 nM
v82‐Fc (v82 with Fc fused in the C‐terminus) (Fc fusion, additional glycosylation sites) CTCSPSHPQDAFCNSDIVIRAKVVGKKLVKEGPFGTLVYTIKQMKMYRGFTKMPNVTYIHTEASESLCGLNLTVNKYQYLLTGRVYNGTMYTGLCNFVERWDQLTLSQRKGLNYTYHLGCNCKIKSCYYLPCFVTSKNECLWTDMLSNFGYPGYQSKHYACIRQKGGYCSWYRGWAPPDKSIINATDP | 10.5 nM | 1 nM | 2.7 nM | 77 nM | 156 nM
N‐PEG (PEGylated N‐TIMP3) (domain or fragment, PEG, size and site not stated) CTCSPSHPQDAFCNSDIVIRAKVVGKKLVKEGPFGTLVYTIKQMKMYRGFTKMPHVQYIHTEASESLCGLKLEVNKYQYLLTGRVYDGKMYTGLCNFVERWDQLTLSQRKGLNYRYHLGC | 0.7 nM | 1.7 nM | 9.8 nM | 1.3 nM | 197 nM
v2‐PEG (TIMP3v2 PEGylated with 20 kDa polyethylene glycol) (natural protein, 20 kDa polyethylene glycol (PEG), site not stated; additional glycosylation site (F34N)) CTCSPSHPQDAFCNSDIVIRASVVGKKLVKEGPNGTLVYTIKQMKMYRGFTKMPHVQYIHTEASESLCGLKLEVNKYQYLLTGRVYDGKMYTGLCNFVERWDQLTLSQRKGLNYRYHLGCNCKIKSCYYLPCFVTSKNECLWTDMLSNFGYPGYQSKHYACIRQKGGYCSWYRGWAPPDKSIINATDP | 9 nM | 0.1 nM | 0.4 nM | 60 nM | 123 nM
